Measurements as given in article PMC4287840.

Legend:
[1] = target: T1, angiopoietin-2 (Ang2) (human, UniProt O15123 19-496); assay: ELONA sandwich
[2] = target: T1, angiopoietin-2 (Ang2); assay: bead-based fluorescence assay
[3] = target: T1, angiopoietin-2 (Ang2); assay: bead-based fluorescence assay; remark: listed apart in the source
[4] = target: T1, angiopoietin-2 (Ang2); assay: bead-based fluorescence assay; remark: listed apart in the source

T1 sequence (O15123 19-496): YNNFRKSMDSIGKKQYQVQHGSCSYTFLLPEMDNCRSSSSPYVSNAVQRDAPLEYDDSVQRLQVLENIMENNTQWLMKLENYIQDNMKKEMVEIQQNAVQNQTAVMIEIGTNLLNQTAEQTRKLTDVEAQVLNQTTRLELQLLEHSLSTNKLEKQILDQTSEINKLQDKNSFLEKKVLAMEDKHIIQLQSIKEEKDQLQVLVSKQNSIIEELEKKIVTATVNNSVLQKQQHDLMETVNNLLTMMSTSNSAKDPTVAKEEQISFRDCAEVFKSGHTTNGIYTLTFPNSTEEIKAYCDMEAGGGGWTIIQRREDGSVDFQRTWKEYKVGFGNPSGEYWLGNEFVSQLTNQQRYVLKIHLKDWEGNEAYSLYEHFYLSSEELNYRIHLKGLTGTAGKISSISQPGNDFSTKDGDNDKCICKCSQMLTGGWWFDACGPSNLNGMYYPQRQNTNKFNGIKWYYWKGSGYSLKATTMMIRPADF

TTTGGGGTGGTTGGGGGTTGTTGTTTTGGGGGTGGAGGGT (ssDNA) [ABA65]: binds [1].

GGTGCCATTGGGGACTGCTCGGGATTGCGGACTTGGCATC (ssDNA) [ABA92]: binds [2].

With TTTTTTTTTTTTTTTTTTTTTTTTT (ssDNA) [25T linker] the Kd [3] was 210 ± 49.4 nM.

In the case of ACTTGTAGGGTTCGGCTGGTCAGGGTGTCCAAGTCTGTGG (ssDNA) [ABA1], the binding signal [4] is reported as ~210 fold higher Kd than ABA1-ABA65 (97 pM).

GGGTGCCATTGGGGACTGCTCGGGATTGCGGACTTGGCAT (ssDNA) [ABA109]: binds [2].
